Measured values: US12616740B2, “Methods of using a GIP/GLP1 co-agonist for therapy” (ELI LILLY AND COMPANY, priority 2018, dated 2026)

Assay: NCT03311724: nausea, vomiting and diarrhea, new events per interval
Type: in vivo, human
Source text: This is a 12-week treatment with a 1 week screening (Visit 1) followed by a 1 week lead-in (Visit 2), then 12 weeks of treatment (Visits 3-10, including telephone visits), then followed by 4-week safety follow-up. It is a Phase 2 study designed to examine the efficacy and tolerability of subcutaneously once-weekly tirzepatide compared with placebo in patients with type 2 diabetes who have inadequate glycemic control with diet and exercise alone or with a stable dose of metformin. The study was designed per below and conducted to refine the escalation scheme.

Substance: tirzepatide [LY]
- Nausea Vomiting and Diarrhea: m, number of patients who experienced new event during interval (LY12 mg Group 3 (tirzepatide 4 mg × 4, 8 mg × 4, 12 mg × 4 once weekly), N = 29, T/Wk 12): m = 1;
- Nausea Vomiting and Diarrhea: m, number of patients who experienced new event during interval (LY15 mg-Group 1 (tirzepatide 2.5 mg × 2, 5 mg × 2, 10 mg × 4, 15 mg × 4 once weekly), N = 28, Follow-up): m = 0;
- Nausea Vomiting and Diarrhea: m, number of patients who experienced new event during interval (LY15 mg-Group 1 (tirzepatide 2.5 mg × 2, 5 mg × 2, 10 mg × 4, 15 mg × 4 once weekly), N = 28, Overall): m = 16;
- Nausea Vomiting and Diarrhea: m, number of patients who experienced new event during interval (LY15 mg-Group 1 (tirzepatide 2.5 mg × 2, 5 mg × 2, 10 mg × 4, 15 mg × 4 once weekly), N = 28, T/Wk 0): m = 6;
- Nausea Vomiting and Diarrhea: m, number of patients who experienced new event during interval (LY15 mg-Group 1 (tirzepatide 2.5 mg × 2, 5 mg × 2, 10 mg × 4, 15 mg × 4 once weekly), N = 28, T/Wk 1): m = 3;
- Nausea Vomiting and Diarrhea: m, number of patients who experienced new event during interval (LY15 mg-Group 1 (tirzepatide 2.5 mg × 2, 5 mg × 2, 10 mg × 4, 15 mg × 4 once weekly), N = 28, T/Wk 2): m = 2;
- Nausea Vomiting and Diarrhea: m, number of patients who experienced new event during interval (LY15 mg-Group 1 (tirzepatide 2.5 mg × 2, 5 mg × 2, 10 mg × 4, 15 mg × 4 once weekly), N = 28, T/Wk 3): m = 1;
- Nausea Vomiting and Diarrhea: m, number of patients who experienced new event during interval (LY15 mg-Group 1 (tirzepatide 2.5 mg × 2, 5 mg × 2, 10 mg × 4, 15 mg × 4 once weekly), N = 28, T/Wk 4): m = 5;
- Nausea Vomiting and Diarrhea: m, number of patients who experienced new event during interval (LY15 mg-Group 1 (tirzepatide 2.5 mg × 2, 5 mg × 2, 10 mg × 4, 15 mg × 4 once weekly), N = 28, T/Wk 5): m = 6;
- Nausea Vomiting and Diarrhea: m, number of patients who experienced new event during interval (LY15 mg-Group 1 (tirzepatide 2.5 mg × 2, 5 mg × 2, 10 mg × 4, 15 mg × 4 once weekly), N = 28, T/Wk 6): m = 2;
- Nausea Vomiting and Diarrhea: m, number of patients who experienced new event during interval (LY15 mg-Group 1 (tirzepatide 2.5 mg × 2, 5 mg × 2, 10 mg × 4, 15 mg × 4 once weekly), N = 28, T/Wk 7): m = 0;
- Nausea Vomiting and Diarrhea: m, number of patients who experienced new event during interval (LY15 mg-Group 1 (tirzepatide 2.5 mg × 2, 5 mg × 2, 10 mg × 4, 15 mg × 4 once weekly), N = 28, T/Wk 8): m = 4;
- Nausea Vomiting and Diarrhea: m, number of patients who experienced new event during interval (LY15 mg-Group 1 (tirzepatide 2.5 mg × 2, 5 mg × 2, 10 mg × 4, 15 mg × 4 once weekly), N = 28, T/Wk 9): m = 0;
- Nausea Vomiting and Diarrhea: m, number of patients who experienced new event during interval (LY15 mg-Group 1 (tirzepatide 2.5 mg × 2, 5 mg × 2, 10 mg × 4, 15 mg × 4 once weekly), N = 28, T/Wk 10): m = 3;
- Nausea Vomiting and Diarrhea: m, number of patients who experienced new event during interval (LY15 mg-Group 1 (tirzepatide 2.5 mg × 2, 5 mg × 2, 10 mg × 4, 15 mg × 4 once weekly), N = 28, T/Wk 11): m = 2;
- Nausea Vomiting and Diarrhea: m, number of patients who experienced new event during interval (LY15 mg-Group 1 (tirzepatide 2.5 mg × 2, 5 mg × 2, 10 mg × 4, 15 mg × 4 once weekly), N = 28, T/Wk 12): m = 0;
- Nausea Vomiting and Diarrhea: m, number of patients who experienced new event during interval (LY15 mg-Group 2 (tirzepatide 2.5 mg × 4, 7.5 mg × 4, 15 mg × 4 once weekly), N = 28, Follow-up): m = 0;
- Nausea Vomiting and Diarrhea: m, number of patients who experienced new event during interval (LY15 mg-Group 2 (tirzepatide 2.5 mg × 4, 7.5 mg × 4, 15 mg × 4 once weekly), N = 28, Overall): m = 13;
- Nausea Vomiting and Diarrhea: m, number of patients who experienced new event during interval (LY15 mg-Group 2 (tirzepatide 2.5 mg × 4, 7.5 mg × 4, 15 mg × 4 once weekly), N = 28, T/Wk 0): m = 4;
- Nausea Vomiting and Diarrhea: m, number of patients who experienced new event during interval (LY15 mg-Group 2 (tirzepatide 2.5 mg × 4, 7.5 mg × 4, 15 mg × 4 once weekly), N = 28, T/Wk 1): m = 4;
- Nausea Vomiting and Diarrhea: m, number of patients who experienced new event during interval (LY15 mg-Group 2 (tirzepatide 2.5 mg × 4, 7.5 mg × 4, 15 mg × 4 once weekly), N = 28, T/Wk 2): m = 2;
- Nausea Vomiting and Diarrhea: m, number of patients who experienced new event during interval (LY15 mg-Group 2 (tirzepatide 2.5 mg × 4, 7.5 mg × 4, 15 mg × 4 once weekly), N = 28, T/Wk 3): m = 3;
- Nausea Vomiting and Diarrhea: m, number of patients who experienced new event during interval (LY15 mg-Group 2 (tirzepatide 2.5 mg × 4, 7.5 mg × 4, 15 mg × 4 once weekly), N = 28, T/Wk 4): m = 6;
- Nausea Vomiting and Diarrhea: m, number of patients who experienced new event during interval (LY15 mg-Group 2 (tirzepatide 2.5 mg × 4, 7.5 mg × 4, 15 mg × 4 once weekly), N = 28, T/Wk 5): m = 2;
- Nausea Vomiting and Diarrhea: m, number of patients who experienced new event during interval (LY15 mg-Group 2 (tirzepatide 2.5 mg × 4, 7.5 mg × 4, 15 mg × 4 once weekly), N = 28, T/Wk 6): m = 3;
- Nausea Vomiting and Diarrhea: m, number of patients who experienced new event during interval (LY15 mg-Group 2 (tirzepatide 2.5 mg × 4, 7.5 mg × 4, 15 mg × 4 once weekly), N = 28, T/Wk 7): m = 2;
- Nausea Vomiting and Diarrhea: m, number of patients who experienced new event during interval (LY15 mg-Group 2 (tirzepatide 2.5 mg × 4, 7.5 mg × 4, 15 mg × 4 once weekly), N = 28, T/Wk 8): m = 5;
- Nausea Vomiting and Diarrhea: m, number of patients who experienced new event during interval (LY15 mg-Group 2 (tirzepatide 2.5 mg × 4, 7.5 mg × 4, 15 mg × 4 once weekly), N = 28, T/Wk 9): m = 2;
- Nausea Vomiting and Diarrhea: m, number of patients who experienced new event during interval (LY15 mg-Group 2 (tirzepatide 2.5 mg × 4, 7.5 mg × 4, 15 mg × 4 once weekly), N = 28, T/Wk 10): m = 0;
- Nausea Vomiting and Diarrhea: m, number of patients who experienced new event during interval (LY15 mg-Group 2 (tirzepatide 2.5 mg × 4, 7.5 mg × 4, 15 mg × 4 once weekly), N = 28, T/Wk 11): m = 3;
- Nausea Vomiting and Diarrhea: m, number of patients who experienced new event during interval (LY15 mg-Group 2 (tirzepatide 2.5 mg × 4, 7.5 mg × 4, 15 mg × 4 once weekly), N = 28, T/Wk 12): m = 0;
